Laboratory results as given in patent US20160297875A1 (CASE WESTERN RESERVE UNIVERSITY, published 2016).
Blank lines part the entries; values can stand above or below the molecule they belong to.

What was measured:
[1] = target: human platelet CD36 (human) (UniProt P16671); assay: cell-based or functional assay
[2] = target: T1, BSA (bovine, UniProt P02769 25-607); assay: plate binding assay, wells coated with BSA (10 µg/mL), detection with anti-human MRP-14 antibody and HRP-conjugated secondary antibody at 450 nm
T1 construct: also called bovine serum albumin
Method: High-protein binding plate (Nunc, Thermo Scientific) was coated with purified CD36 (Abcam) or BSA (10 μg/mL) overnight at 4° C. After blocking with 10% BSA at RT for 2 hours, purified human MRP-14 protein (0-2.5 μg/ml) was added and incubated for 2 hours at RT. After washing, plate was incubated with anti-human MRP-14 antibody for one hour followed by washing and incubation with HRP-conjugated secondary antibody that was detected with TMB substrate (Thermo Scientific) at 450 nm.

T1 sequence (P02769 25-607 limits assumed): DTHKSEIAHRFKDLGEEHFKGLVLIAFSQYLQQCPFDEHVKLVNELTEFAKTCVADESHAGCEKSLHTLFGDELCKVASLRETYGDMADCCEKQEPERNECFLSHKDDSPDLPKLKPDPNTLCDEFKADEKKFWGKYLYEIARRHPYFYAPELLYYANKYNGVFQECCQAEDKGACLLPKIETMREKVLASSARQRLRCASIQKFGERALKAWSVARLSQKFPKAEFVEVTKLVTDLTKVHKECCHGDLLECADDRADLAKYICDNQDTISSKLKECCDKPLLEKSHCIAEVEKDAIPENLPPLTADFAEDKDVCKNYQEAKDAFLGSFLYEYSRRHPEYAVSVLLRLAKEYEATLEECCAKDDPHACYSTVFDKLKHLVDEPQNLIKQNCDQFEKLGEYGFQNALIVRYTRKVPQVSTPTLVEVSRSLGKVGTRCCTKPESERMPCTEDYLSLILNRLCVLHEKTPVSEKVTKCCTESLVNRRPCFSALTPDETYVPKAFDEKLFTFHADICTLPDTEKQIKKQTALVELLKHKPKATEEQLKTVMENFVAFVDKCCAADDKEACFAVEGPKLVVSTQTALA
Sequence of human platelet CD36 (human) (P16671 2-472 limits assumed): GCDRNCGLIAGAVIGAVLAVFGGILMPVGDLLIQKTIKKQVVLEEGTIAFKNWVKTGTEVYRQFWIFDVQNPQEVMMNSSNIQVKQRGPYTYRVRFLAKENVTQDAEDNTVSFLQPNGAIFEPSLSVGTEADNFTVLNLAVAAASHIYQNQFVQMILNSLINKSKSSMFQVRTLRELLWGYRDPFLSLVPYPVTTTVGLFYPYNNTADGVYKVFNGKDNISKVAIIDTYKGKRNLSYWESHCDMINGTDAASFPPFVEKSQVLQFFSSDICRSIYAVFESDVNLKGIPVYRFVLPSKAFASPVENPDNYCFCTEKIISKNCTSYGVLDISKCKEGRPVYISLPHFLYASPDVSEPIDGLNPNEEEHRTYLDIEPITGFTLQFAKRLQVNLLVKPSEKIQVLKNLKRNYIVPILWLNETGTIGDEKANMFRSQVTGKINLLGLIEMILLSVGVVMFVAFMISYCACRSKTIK

percentage of inhibition of shear-induced thrombus formation in anticoagulated human whole blood (antibody 10 µg/ml) [1]: 53.8%
Molecule: anti-human CD36 monoclonal antibody (clone FA6-152)

binding result [2]: no binding (tested: 0-2.5 µg/ml MRP-14)
B1: purified, recombinant human MRP-14 (ligand, UniProt P06702 1-114, looked up)
chain: MTCKMSQLERNIETIINTFHQYSVKLGHPDTLNQGEFKELVRKDLQNFLKKENKNEKVIEHIMEDLDTNADKQLSFEEFIMLMARLTWASHEKMHEGDEGPGHHHKPGLGEGTP
notes: Bought protein; also called purified MRP-14; purified human MRP-14 protein
